Experimental data: US20170363643A1

How the values were obtained:
[1] = target: His-tagged recombinant human SMN protein (ProteinTech, catalog # ag14333) (human) (UniProt Q16637); assay: Erenna sandwich assay, capture MABE230 12.5 µg/mg MPs; Det Ab 1000 ng/mL; SMN 200.00 pg/mL
[2] = target: His-tagged recombinant human SMN protein (ProteinTech, catalog # ag14333) (human) (UniProt Q16637); assay: Erenna sandwich assay, capture MABE230; SMN 2 pg/mL, MPs 5 µg/well, Det Ab 50 ng/mL, Cap Ab/MP 25 µg/mg
[3] = target: His-tagged recombinant human SMN protein (ProteinTech, catalog # ag14333) (human) (UniProt Q16637); assay: Erenna sandwich assay, capture MABE230; SMN 2 pg/mL, MPs 5 µg/well, Det Ab 1000 ng/mL, Cap Ab/MP 12.5 µg/mg
[4] = target: His-tagged recombinant human SMN protein (ProteinTech, catalog # ag14333) (human) (UniProt Q16637); assay: Erenna sandwich assay, capture MABE230; SMN 2 pg/mL, MPs 5 µg/well, Det Ab 100 ng/mL, Cap Ab/MP 25 µg/mg
[5] = target: His-tagged recombinant human SMN protein (ProteinTech, catalog # ag14333) (human) (UniProt Q16637); assay: Erenna sandwich assay, capture MABE230; SMN 2 pg/mL, MPs 10 µg/well, Det Ab 1000 ng/mL, Cap Ab/MP 12.5 µg/mg
[6] = target: His-tagged recombinant human SMN protein (ProteinTech, catalog # ag14333) (human) (UniProt Q16637); assay: Erenna sandwich assay, capture MABE230; human CSF sample 5 spiked with recombinant SMN 10.0 pg/mL (endogenous SMN also present)
[7] = target: His-tagged recombinant human SMN protein (ProteinTech, catalog # ag14333) (human) (UniProt Q16637); assay: Erenna sandwich assay, capture MABE230 12.5 µg/mg MPs; Det Ab 1000 ng/mL; SMN 0.06 pg/mL
[8] = target: His-tagged recombinant human SMN protein (ProteinTech, catalog # ag14333) (human) (UniProt Q16637); assay: Erenna sandwich assay, capture MABE230; human CSF sample 4 spiked with recombinant SMN 5.0 pg/mL (endogenous SMN also present)
[9] = target: His-tagged recombinant human SMN protein (ProteinTech, catalog # ag14333) (human) (UniProt Q16637); assay: Erenna sandwich assay, capture MABE230; SMN 2 pg/mL, MPs 10 µg/well, Det Ab 50 ng/mL, Cap Ab/MP 12.5 µg/mg
[10] = target: His-tagged recombinant human SMN protein (ProteinTech, catalog # ag14333) (human) (UniProt Q16637); assay: Erenna sandwich assay, capture MABE230 12.5 µg/mg MPs; Det Ab 1000 ng/mL; SMN 0.93 pg/mL
[11] = target: His-tagged recombinant human SMN protein (ProteinTech, catalog # ag14333) (human) (UniProt Q16637); assay: Erenna sandwich assay, capture MABE230; SMN 2 pg/mL, MPs 5 µg/well, Det Ab 50 ng/mL, Cap Ab/MP 12.5 µg/mg
[12] = target: His-tagged recombinant human SMN protein (ProteinTech, catalog # ag14333) (human) (UniProt Q16637); assay: Erenna sandwich assay, capture MABE230 12.5 µg/mg MPs; Det Ab 500 ng/mL; SMN 200.00 pg/mL
[13] = target: His-tagged recombinant human SMN protein (ProteinTech, catalog # ag14333) (human) (UniProt Q16637); assay: Erenna sandwich assay, capture MABE230 12.5 µg/mg MPs; Det Ab 500 ng/mL; SMN 22.22 pg/mL
[14] = target: His-tagged recombinant human SMN protein (ProteinTech, catalog # ag14333) (human) (UniProt Q16637); assay: Erenna sandwich assay, capture MABE230; SMN 2 pg/mL, MPs 10 µg/well, Det Ab 100 ng/mL, Cap Ab/MP 12.5 µg/mg
[15] = target: endogenous SMN protein in human CSF (human) (UniProt Q16637); assay: Erenna sandwich assay, capture MABE230; human CSF sample 2, unspiked (endogenous SMN only)
[16] = target: endogenous SMN protein in human CSF (human) (UniProt Q16637); assay: Erenna sandwich assay, capture MABE230; human CSF sample 1, unspiked (endogenous SMN only)
[17] = target: His-tagged recombinant human SMN protein (ProteinTech, catalog # ag14333) (human) (UniProt Q16637); assay: Erenna sandwich assay, capture MABE230 12.5 µg/mg MPs; Det Ab 1000 ng/mL; SMN 3.70 pg/mL
[18] = target: His-tagged recombinant human SMN protein (ProteinTech, catalog # ag14333) (human) (UniProt Q16637); assay: Erenna sandwich assay, capture MABE230 12.5 µg/mg MPs; Det Ab 1000 ng/mL; SMN 66.67 pg/mL
[19] = target: His-tagged recombinant human SMN protein (ProteinTech, catalog # ag14333) (human) (UniProt Q16637); assay: Erenna sandwich assay, capture MABE230 12.5 µg/mg MPs; Det Ab 500 ng/mL; SMN 66.67 pg/mL
[20] = target: His-tagged recombinant human SMN protein (ProteinTech, catalog # ag14333) (human) (UniProt Q16637); assay: Erenna sandwich assay, capture MABE230 12.5 µg/mg MPs; Det Ab 1000 ng/mL; SMN 22.22 pg/mL
[21] = target: His-tagged recombinant human SMN protein (ProteinTech, catalog # ag14333) (human) (UniProt Q16637); assay: BLI (BLItz), His-tagged SMN immobilised on the biosensor tip, antibody in solution

ProteinTech anti-SMN2 (catalog #60154-1-Ig) (antibody)
detected events (DE) (detected events) [1]: 9360
event photons (EP) (event photons) [1]: 2.04e+07
detected events (DE) (detected events) [2]: 560
detected events (DE) (detected events) [3]: 2590
detected events (DE) (detected events) [4]: 817
detected events (DE) (detected events) [5]: 2920
detected events (DE) (detected events) [6]: 9440
detected events (DE) (detected events) [7]: 125
event photons (EP) (event photons) [7]: 15900
detected events (DE) (detected events) [8]: 5810
detected events (DE) (detected events) [9]: 681
detected events (DE) (detected events) [10]: 1170
event photons (EP) (event photons) [10]: 171000
detected events (DE) (detected events) [11]: 450
detected events (DE) (detected events) [12]: 9460
event photons (EP) (event photons) [12]: 1.86e+07
detected events (DE) (detected events) [13]: 12200
event photons (EP) (event photons) [13]: 3.85e+06
detected events (DE) (detected events) [14]: 1050
detected events (DE) (detected events) [15]: 240
detected events (DE) (detected events) [16]: 330
detected events (DE) (detected events) [17]: 4330
event photons (EP) (event photons) [17]: 706000
detected events (DE) (detected events) [18]: 11500
event photons (EP) (event photons) [18]: 1.06e+07
detected events (DE) (detected events) [19]: 12000
event photons (EP) (event photons) [19]: 9.53e+06
detected events (DE) (detected events) [20]: 13100
event photons (EP) (event photons) [20]: 4.64e+06
Kd [21]: < 1 pM
koff [21]: < 1e-07 s⁻¹
kon [21]: 118000 M⁻¹ s⁻¹
